Results as given in publication doi:10.1101/2020.10.25.354548 (bioRxiv, 2020).

Target: SARS-CoV-2 spike protein receptor binding domain (RBD) (SARS-CoV-2, UniProt P0DTC2)
Assay: ELISA

B1: bovine ACE2-Fc (bovine angiotensin I converting enzyme 2 fused to human IgG1 Fc) (Fc fusion)
chain: QSTTEEQAKTFLEKFNHEAEDLSYQSSLASWNYNTNITDENVQKMNEARAKWSAFYEEQSRMAKTYSLEEIQNLTLKRQLKALQHSGTSALSAEKSKRLNTILNKMSTIYSTGKVLDPNTQECLALEPGLDDIMENSRDYNRRLWAWEGWRAEVGKQLRPLYEEYVVLENEMARANNYEDYGDYWRGDYEVTGAGDYDYSRDQLMKDVERTFAEIKPLYEQLHAYVRAKLMHTYPSYISPTGCLPAHLLGDMWGRFWTNLYSLTVPFEHKPSIDVTEKMENQSWDAERIFKEAEKFFVSISLPYMTQGFWDNSMLTEPGDGRKVVCHPTAWDLGKGDFRIKMCTKVTMDDFLTAHHEMGHIQYDMAYAAQPYLLRNGANEGFHEAVGEIMSLSAATPHYLKALGLLAPDFHEDNETEINFLLKQALTIVGTLPFTYMLEKWRWMVFKGEIPKQQWMEKWWEMKREIVGVVEPLPHDETYCDPACLFHVAEDYSFIRYYTRTIYQFQFHEALCKTAKHEGALFKCDISNSTEAGQRLLQMLRLGKSEPWTLALENIVGIKTMDVKPLLNYFEPLFTWLKEQNRNSFVGWSTEWTPYSDQSIKVRISLKSALGENAYEWNDNEMYLFQSSVAYAMRKYFSEARNETVLFGEDNVWVSDKKPRISFKFFVTSPNNVSDIIPRTEVENAIRLSRDRINDVFQLDDNSLEFLGIQPTLGPPYEPPVT
**Q.** B1 was tested. Which EC50 did it give?
**A.** The EC50 was 1.3 nM.
